According to the nanobody polyreactivity screen of Harvey et al. (2022):

Test: yeast display, Sf9 membrane polyspecificity reagent, FACS + sequencing; frameworks hold sequencing errors
How it was run: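 Using colony PCR, genes from sorted yeast display clones were amplified, then sequenced on MiSeq at 2 × 250 and filtered by CDR length. The clones had been stained with 10% biotinylated, detergent-solubilized Sf9 membrane reagent for 1 hour at 4 °C and sorted by FACS into low and high (top ~1%) gates on anti-HA and streptavidin fluorescence. Polyreactivity labels come from the gate of origin.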

Sequence	polyreactivity (PSR sort gate)
QVQLVESGGGLVQAGGSLRLSCAASVRISESNDMGWYRQAPGKERELVAAISSSGGSTYYADSVKGRFTISRENAKNTVYLQMNSLKPEDTAVYYCNAVYYRTVLKIGVYEYDFWGQGTQVTVSW	low polyreactivity
QVQLVESGGGLVQAGGSLRLSCAASVRTFYIYAMGWYIQAHGKERELVAAITSVGSTNYADSVKGRFTISRDNAKNTVNLQMNSLKPEDTAVYYCAAESTEGTSGDYDYWGQGTQVTVSS	low polyreactivity
QVQLVESGGGLVQAGGSLRLSCAASVRTLPSYAMGWYRQAPGKERELVAAISQSGGSTYYADSVKGRFTISRDNAKNTVYLQMNSLKPEDTAVYYCNAGYYYKYSPRRFDYWGQGTQVTVSS	high polyreactivity
QVQLVESGGGLVQAGGSLRLSCAASVRTSRLYAMGWYRQAPGKERELDASITRGGSTYADSVKGRFTISRDNAKNTVYLQMNSLKPEDTAVDYCNAELYVPPYDDDYWGQGTQVTVSS	high polyreactivity
QVQLVESGGGLVQAGGSLRLSCAASVSTFGRYVMGWYRQAPGKERELVAAISKNAGSTYYADSVKGRFTISRDNAKNTVYVQMNSLKPEDTAVYYCAADWRTKGYDSLGQGTQVTVSS	high polyreactivity
QVQLVESGGGLVQAGGSLRLSCAASVSTFPQYAMGWYRQAPGKERELVAAISWSGGRTYYADSVKGRFTISRDNAKNTVYLQMNSLKPEDTAVFYCAATYPGQYGYNYWGQGTQVTVSS	high polyreactivity
QVQLVESGGGLVQAGGSLRLSCAASVSTFSYNYMGWYRQAPRKERELDAAISSGGSTKYADSVKGRFRISRDNAKNTVYLQMNSLKPEDTAVYYCIKDYPQNPLPASSYYLYDYWGQGTQVTVSS	high polyreactivity
QVQLVESGGGLVQAGGSLRLSCAASVYAMGWYRQAPGKERELVAAITDSGSTNYADSVKGRFTISRDNAKNTVYLQMNTLKPEDTAVYYCNADPYYATGSWARLPLYQYDYWGQGTQVTVSS	low polyreactivity
QVQLVESGGGLVQAGGSLRLSCAASYNAMGWYRQAPGKEREFVAGITQSGGSTYYADSVKGRFTISRDNAKNTVYLQMNSLKAEDTAVYYCAKRLYKWGQGTQVTVSS	low polyreactivity
QVQLVESGGGLVQAGGSLRLSCAATARNFYRYAMAWYRQAPGKERELVARITSAGSTDYADSVKGRFTISRDNAKNTVYLQMNSLKPEDTAVYYCAAFGFSYRTFWYDYWGQGTQVTVSS	high polyreactivity
QVQLVESGGGLVQAGGSLRLSCAATGFIFRYYAMGWYSQAPGKERELVATISSGGGTHYADSVKGRYSISRDNAKNTVYLKMNSLKPEDTAVYYCNARGYRRLRTRVDYWGQGTQVTVSS	high polyreactivity
QVQLVESGGGLVQAGGSLRLSCAATGFTFASYAMRLYRQAAGKETELVAAITWGTGTTSYADSVKGRFTISRDNAKNTVYLQMNSLKPEDTAVYYCATRFRPITYRRRYDYWGQGTQVTVSS	low polyreactivity
QVQLVESGGGLVQAGGSLRLSCAATGGTIYYYAMGWYRQAPGKERELVAAISTSGTSTYYADSVKGRFTISRDNAKNTVYLQMNSLKPEDTAVYYCAARGLRVSSRGYYWGQGTQVTVSS	high polyreactivity
QVQLVESGGGLVQAGGSLRLSCAATGITFQPYTMGWYRQAPGKERELVASISIRGSRTYYADSVKGRFTISRDNAKNTVYLQMNSLKPEDTAVYYCNAPYNHVWAHSYWYDYWGQGTQVTVSS	high polyreactivity
QVQLVESGGGLVQAGGSLRLSCAATGITFYTYAMGWYRQAPGKERELVAAITRSGGSTYYADSVKGRFTISRDNAKNTVYLQMNSLKPEDTAVYYCAADGGYIYWEHLYYSGSDYWGQGTQVTVSS	low polyreactivity
QVQLVESGGGLVQAGGSLRLSCAATGITLYGYFMGWYRQAPGKERELVAAISRSGGSTYYADSVMGRFTISRDNAKNTVYLQMNSLKPEDTAVYYCAKVPRYYYDSEFDYWGQGTQVTVSS	high polyreactivity

Sequence	polyreactivity (PSR sort gate)
QVQLVESGGGLVQAGGSLRLSCAATGLTFWVNAMAWYRQAPGKERELVADITRSGGITNYADSVKGRFTISRDNANNTVYLQMNSLKPEDNAVYYCNADQRVDHDDFDYWGKGTQVTVSS	low polyreactivity
QVQLVESGGGLVQAGGSLRLSCAATGLTFYLNAMGWYRQAPGKEREFVAAINYSVGSTYYADSVKGRFTISRDNAKNTVYLQMNSLKPEDTAVFYCAADGYLYFKVDNEYWGQGTQVTVSS	low polyreactivity
QVQLVESGGGLVQAGGSLRLSCAATGRIFYRNAMGWYRQAPGKERELVAAIRGSGGRTYYADSVKGRFTISRDNAKNTVYLQMNSLKPEDTAVYYCAAYGYYVEHPRGLSGPYDDDYWGQGTQVTVSS	low polyreactivity
QVQLVESGGGLVQAGGSLRLSCAATGRTFRLYAMGWYRQAPGKERELVAAITRGGRTNYADSVKGRFTISRDNAKNTVYLQMNSLKPEDTAVYYCAARYRLPIPGTQYEYWGQGTQVTVSS	low polyreactivity
QVQLVESGGGLVQAGGSLRLSCAATGRTFSSYAMGWYRQAPGKEREFLARISSSRGRTSYADSVKGRFTISRDNAKNTVYVQMNSLKPEDTAVYYCAARPPYRVGIVPLGRREYYWGRGTQVTVSS	high polyreactivity
QVQLVESGGGLVQAGGSLRLSCAATGRTLPPNAMGSYRQAPGKERELVAGITWSGGSTYYADSVKGRFTISRDNAKNTVYLQMNSLKPEDTAVYYCAASRSFPGYGLYYYWGQGTQVTVSS	low polyreactivity
QVQLVESGGGLVQAGGSLRLSCAATGSIDSNALGWYRQAPGKERELVADITSGTPTYADSVKGRFTITRDNAKNTVYLQMNSLKPEDTAVYYCAADIPPWGGDYWGQGTQVTVSS	low polyreactivity
QVQLVESGGGLVQAGGSLRLSCAATGSIFRGYAMGWYRQAPGKERELVAAITSGGSTNYADSVKGRFTISRDNAKNTVYLQMNSLKPEDTAVYYCAKDLALVAPLSDYWGQGTQVTVSW	low polyreactivity
QVQLVESGGGLVQAGGSLRLSCAATGSIFTAYDMGWYRQAPGKERELVAAINVSAGTTYYADSVKGRFTISRDNAKNTVYLQMNSLKPEDTAVYYCATDRSPTPYTRENIYDYWGQGTQVTVSS	low polyreactivity
QVQLVESGGGLVQAGGSLRLSCAATGSIFVGYVMGWYRQAAGKERELVAAISRSGGRTYYADSVKGRFTISRDNAKNTVYLQMNSLKPEDTAVYYCAVRHRFYTAGYDYWGQGTQVTVSS	low polyreactivity
QVQLVESGGGLVQAGGSLRLSCAATGSILVYYAMGWSRQAPGKERELVAAISSGGSTNYADSVKGRFTISRDNAKNTVYLQMNSLKPEDTAVYYCDKESGWVGAIHYDYWGQGTQVTVSS	low polyreactivity
QVQLVESGGGLVQAGGSLRLSCAATGSTFAKYAMCSYRQAPGKERELVASISGSGGSTYYADSVKGRFTISRDNAKNTFYLQMNSLIPEDTAVYYSAARRYVWYYWGQGTQVTVSW	high polyreactivity
QVQLVESGGGLVQAGGSLRLSCAATGSTFDRYGMGWYRQAPGKERELVAAINSGDITNYADSVKGRFTISRDNAKNTVYLQMNSLKPEDTAVYYCNAGIRYFVVGRSSYDYWGQGTQVTVSS	low polyreactivity
QVQLVESGGGLVQAGGSLRLSCAATGSTFIDNARGWYRQAPGKERELVAAINSSGGNTYYADSVKGRFTISRDNAKNTVYLQMNSLKPEDTAVYYCNAEFSVLYFYDYEYWGQGTQVTVSS	low polyreactivity
QVQLVESGGGLVQAGGSLRLSCAATGSTFIFYAMGWYRQAPGKERELVAAISWSGGSTYYADSVKGRFTISRDNAKNTVYLQMNSLKPEDTAVYYCNARWSSWYIHSHYYYWGQGTQVTVSS	high polyreactivity
QVQLVESGGGLVQAGGSLRLSCAATGSTFRKYAMGWYRQAPGKEREFVAAISSAGGRTYYADSVKGRFTISRDNAKNTVYLQMNSLKPEDTAVYYCNAYFRYSYDYWGQGTQVTVSS	high polyreactivity
